The values that follow come from US20220221455A1 (GlaxoSmithKline, published 2022).

The experiment has as its target T1, PE-PilA fusion protein LVL-735 (Haemophilus influenzae).
T1 construct: also called PE-PilA drug substance; PE-PilA DS
T1 chain: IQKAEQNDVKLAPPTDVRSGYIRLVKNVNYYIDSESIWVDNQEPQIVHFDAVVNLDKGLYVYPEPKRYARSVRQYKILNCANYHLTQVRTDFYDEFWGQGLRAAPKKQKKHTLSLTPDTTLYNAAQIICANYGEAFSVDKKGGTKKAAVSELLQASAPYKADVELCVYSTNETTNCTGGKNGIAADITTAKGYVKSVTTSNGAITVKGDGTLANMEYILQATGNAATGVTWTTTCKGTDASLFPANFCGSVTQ
Briefly: HDX-MS, antibody/antigen complex at molar ratio 1:1.

B1: PEPilA/3 mAb (antibody, V domains shown)
VH: QGQLQQSGPELVKPGASVKMSCKASGYTFTDYVISWVKQRIGQGLEWIGEIHPGSGSIHYNEKFKGKATLTADKSSNTAYMQLSSLTSEDSAVYFCARRGLRRPWFAYWGQGTLVTVSA
VL: DIVLTQSPASLAVSLGQRATISCRASKSVSTSGYSYMHWFQQKPGQPPKLLIYLASNLESGVPARFSGSGSGTDFTLNIHPVEEEDAATYYCQHSRELPLTFGAGTKLELK
notes: Mouse anti-PilA monoclonal antibody; The isotype appears only as 'optionally an IgG2A' in an embodiment; It was biotinylated when used as detection antibody in the sandwich ELISA; also called mAb PEPilA/3; PilA mAb
Take B1: the binding result was “binds”.
